Changes are numbered by the printed parent chain. In names and notes the source's numbering stands. One block for each binder: values may come before it.
Key:
human IL-2Rβ [1] = target: T1, human IL-2Rβ (human, UniProt P14784 27-240, limits assumed); test: SPR 37C
T1 construct: also called hIL-2Rβ; IL-2 receptor beta
T1 sequence (looked up): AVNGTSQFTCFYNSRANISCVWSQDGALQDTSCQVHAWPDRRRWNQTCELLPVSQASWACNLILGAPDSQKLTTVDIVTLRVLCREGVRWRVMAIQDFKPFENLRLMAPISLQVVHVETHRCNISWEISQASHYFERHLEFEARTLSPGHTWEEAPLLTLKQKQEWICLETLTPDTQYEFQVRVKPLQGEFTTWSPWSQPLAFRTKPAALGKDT

human IL-15Rα [2] = target: T2, human IL-15Rα (human, UniProt Q13261 31-205, limits assumed); test: SPR, steady state
T2 construct: also called hIL-15Rα; IL-15 receptor alpha
T2 sequence (Q13261 31-205 limits assumed): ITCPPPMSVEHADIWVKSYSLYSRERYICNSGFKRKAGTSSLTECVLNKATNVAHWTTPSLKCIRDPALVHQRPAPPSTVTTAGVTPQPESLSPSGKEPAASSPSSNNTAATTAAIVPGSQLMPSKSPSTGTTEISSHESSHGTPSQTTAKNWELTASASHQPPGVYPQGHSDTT

human IL-2Rβ [3] = target: T1, human IL-2Rβ; test: SPR, fusion captured
Protocol: (§1) Anti-human Fc sensor chips were prepared at 25° C. with a running buffer of 10 mM HEPES, 150 mM NaCl, 0.05% (v/v) Tween-20, pH 7.4. All surfaces of a Biacore CM4 sensor chip were activated with a 1:1 (v/v) mixture of 400 mM EDC and 100 mM NHS for 7 minutes, at a flow rate of 10 μL/min. An anti-human Fc reagent (Goat anti-human IgG Fc-γ specific, SouthernBiotech, Birmingham, Ala., Catalog #2014-01) was diluted to 50 μg/mL in 10 mM sodium acetate (pH 4.5) and injected on all flow cells for 7 minutes at 20 μL/min. All flow cells were blocked with 100 mM ethylenediamine in 200 mM Borate buffer pH 8.5 for 7 minutes at 10 μL/min.
(§2) All protein interaction experiments were performed at 37° C. using a running buffer of 10 mM HEPES, 150 mM NaCl, 0.05% (v/v) Tween-20, pH 7.4, 1 mg/mL BSA. Anti-PD-1-hIL-15 fusion proteins were captured at 10 μg/mL at a flow rate of 10 μL/min for 2 minutes. Different fusion proteins were captured in flow cells 2, 3 and 4. No protein was captured onto flow cell 1 which was used as a reference surface. […] After each analyte injection, dissociation was monitored for 5 minutes followed by regeneration of all flow cells with three 60-second injections of 75 mM phosphoric acid. […] For kinetic analysis, the double-referenced sensorgrams were fit globally to a simple 1:1 Langmuir with mass transport binding model using Biacore T200 Evaluation Software version 2.0. For steady-state affinity analysis, the double-referenced equilibrium binding responses were fit with a 1:1 Langmuir steady-state model using Biacore T200 Evaluation Software version 2.0.

human IL-15Rα [4] = target: T2, human IL-15Rα; test: SPR 37C, fusion captured by anti-human Fc
Protocol: as §1, §2

B1: hIL-15 V49R/D8A (ligand)
chain: NWVNVISALKKIEDLIQSMHIDATLYTESDVHPSCKVTAMKCFLLELQRISLESGDASIHDTVENLIILANNSLSSNGNVTESGCKECEELEEKNIKEFLQSFVHIVQMFINTGGGGSGHHHHHHHHGGGLNDIFEAQKIEWHE
binding result (human IL-2Rβ [1]): no binding | Kd (human IL-15Rα [2]): 102 nM

B5: hIL-15 V49R/D61K (ligand)
chain: B1 chain with A8D, D61K
binding result (human IL-2Rβ [1]): no binding | Kd (human IL-15Rα [2]): 116 nM

B7: hIL-15 V49R/N65A (ligand)
chain: B1 chain with A8D, N65A
binding result (human IL-2Rβ [1]): no binding | Kd (human IL-15Rα [2]): 202 nM

B8: hIL-15 V49R/K11P (ligand)
chain: B1 chain with A8D, K11P
binding result (human IL-2Rβ [1]): no binding

B9: hIL-15 V49R/N4I (ligand)
chain: B1 chain with N4I, A8D
binding result (human IL-2Rβ [1]): no binding

B11: hIL-15 V49R/E64K (ligand)
chain: B1 chain with A8D, E64K
binding result (human IL-2Rβ [1]): no binding | Kd (human IL-15Rα [2]): 164 nM

B13: hIL-15 V49R/D61N (ligand)
chain: B1 chain with A8D, D61N
binding result (human IL-2Rβ [1]): no binding | Kd (human IL-15Rα [2]): 121 nM

B15: hIL-15 V49R/N4K (ligand)
chain: B1 chain with N4K, A8D
binding result (human IL-2Rβ [1]): no binding | Kd (human IL-15Rα [2]): 73.1 nM

B17: hIL-15 V49R/I68D (ligand)
chain: B1 chain with A8D, I68D
binding result (human IL-2Rβ [1]): no binding | Kd (human IL-15Rα [2]): 106 nM

Now from value to binder:

binding result (human IL-2Rβ [1]): no binding | Kd (human IL-15Rα [2]): 102 nM
B2: hIL-15 V49R/D61S (ligand)
chain: B1 chain with A8D, D61S

binding result (human IL-2Rβ [1]): no binding | Kd (human IL-15Rα [2]): 119 nM
B3: hIL-15 V49R/D8N (ligand)
chain: B1 chain with A8N

binding result (human IL-2Rβ [1]): no binding | Kd (human IL-15Rα [2]): 158 nM
B4: hIL-15 V49R/N65S (ligand)
chain: B1 chain with A8D, N65S

binding result (human IL-2Rβ [1]): no binding | Kd (human IL-15Rα [2]): 101 nM
B6: hIL-15 V49R/D8K (ligand)
chain: B1 chain with A8K

binding result (human IL-2Rβ [1]): no binding | Kd (human IL-15Rα [2]): 124 nM
B10: hIL-15 V49R/D8S (ligand)
chain: B1 chain with A8S

binding result (human IL-2Rβ [1]): no binding | Kd (human IL-15Rα [2]): 94.7 nM
B12: hIL-15 V49R/N4S (ligand)
chain: B1 chain with N4S, A8D

binding result (human IL-2Rβ [1]): no binding | Kd (human IL-15Rα [2]): 104 nM
B14: hIL-15 V49R/I68S (ligand)
chain: B1 chain with A8D, I68S

binding result (human IL-2Rβ [1]): no binding | Kd (human IL-15Rα [2]): 94.2 nM
B16: hIL-15 V49R/I68K (ligand)
chain: B1 chain with A8D, I68K

Kd (human IL-2Rβ [3]): > 3000 nM | binding result (human IL-15Rα [4]): no binding (tested: 3000 nM)
B18: xmPD-1-hIL15 V49R/E46G/E64Q/D30N/M109A (other)
heavy 1: HHHHHHHHGGGGSGSGGEVQLVESGGGLVKPGGSLELSCAASGFTFSSYWMSWVRQAPEKGLEWVAAISPSGGSTYYADSVKGRFTISRDNAKNTLFLQMTSLRSEDTAMYYCAKESWGAYYDLWGQGTTVTVSSASTKGPSVFPLAPCSRSTSESTAALGCLVKDYFPEPVTVSWNSGALTSGVHTFPAVLQSSGLYSLSSVVTVPSSNFGTQTYTCNVDHKPSNTKVDKTVERKCRVRCPRCPAPPVAGPSVFLFPPKPKDTLMISRTPEVTCVVVAVSHEDPEVQFNWYVDGVEVHNAKTKPREEQFNSTFRVVSVLTVVHQDWLNGKEYKCKVSNKGLPSSIEKTISKTKGQPREPQVYTLPPSREEMTKNQVSLTCLVKGFYPSDIAVEWESNGQPENNYKTTPPMLDSDGSFFLYSRLTVDKSRWQQGNVFSCSVMHEALHNHYTQKSLSLSPGK
heavy 2: EVQLVESGGGLVKPGGSLELSCAASGFTFSSYWMSWVRQAPEKGLEWVAAISPSGGSTYYADSVKGRFTISRDNAKNTLFLQMTSLRSEDTAMYYCAKESWGAYYDLWGQGTTVTVSSASTKGPSVFPLAPCSRSTSESTAALGCLVKDYFPEPVTVSWNSGALTSGVHTFPAVLQSSGLYSLSSVVTVPSSNFGTQTYTCNVDHKPSNTKVDKTVERKCEVECPECPAPPVAGPSVFLFPPKPKDTLMISRTPEVTCVVVAVSHEDPEVQFNWYVDGVEVHNAKTKPREEQFNSTFRVVSVLTVVHQDWLNGKEYKCKVSNKGLPSSIEKTISKTKGQPREPQVYTLPPSREEMTKNQVSLTCEVKGFYPSDIAVEWESNGQPENNYKTTPPMLDSDGSFFLYSKLTVDKSRWQQGNVFSCSVMHEALHNHYTQKSLSLSPGSGGGGGTSATATPGANWVNVISDLKKIEDLIQSMHIDATLYTESNVHPSCKVTAMKCFLLGLQRISLESGDASIHDTVQNLIILANNSLSSNGNVTESGCKECEELEEKNIKEFLQSFVHIVQAFINT
light: DIVMTQSPSSLSVSAGDKVTMSCRASQGISSWLAWYQQKPWQPPKLLIYKASTLESGVPDRFTGSGSGTDFTLTISSVQAEDLAVYYCQQSYSTPWTFGGGTKLEIKGTVAAPSVFIFPPSDEQLKSGTASVVCLLNNFYPREAKVQWKVDNALQSGNSQESVTEQDSKDSTYSLSSTLTLSKADYEKHKVYACEVTHQGLSSPVTKSFNRGEC
notes: not restated for this mutant

Kd (human IL-2Rβ [3]): > 1500 nM
B19: xmPD-1-hIL15 V49R/E46G/N1G/N4Q/D30N (other)
heavy 1: EVQLVESGGGLVKPGGSLELSCAASGFTFSSYWMSWVRQAPEKGLEWVAAISPSGGSTYYADSVKGRFTISRDNAKNTLFLQMTSLRSEDTAMYYCAKESWGAYYDLWGQGTTVTVSSASTKGPSVFPLAPSSKSTSGGTAALGCLVKDYFPEPVTVSWNSGALTSGVHTFPAVLQSSGLYSLSSVVTVPSSSLGTQTYICNVNHKPSNTKVDKKVEPKSCDKTHTCPPCPAPEAAGAPSVFLFPPKPKDTLMISRTPEVTCVVVDVSHEDPEVKFNWYVDGVEVHNAKTKPREEQYNSTYRVVSVLTVLHQDWLNGKEYKCKVSNKALPAPIEKTISKAKGQPREPQVYTLPPCREEMTKNQVSLSCAVKGFYPSDIAVEWESNGQPENNYKTTPPVLDSDGSFFLVSKLTVDKSRWQQGNVFSCSVMHEALHNHYTQKSLSLSPGSGGGGSGGGGSGGGGGWVQVISDLKKIEDLIQSMHIDATLYTESNVHPSCKVTAMKCFLLGLQRISLESGDASIHDTVENLIILANNSLSSNGNVTESGCKECEELEEKNIKEFLQSFVHIVQMFINTS
heavy 2: EVQLVESGGGLVKPGGSLELSCAASGFTFSSYWMSWVRQAPEKGLEWVAAISPSGGSTYYADSVKGRFTISRDNAKNTLFLQMTSLRSEDTAMYYCAKESWGAYYDLWGQGTTVTVSSASTKGPSVFPLAPSSKSTSGGTAALGCLVKDYFPEPVTVSWNSGALTSGVHTFPAVLQSSGLYSLSSVVTVPSSSLGTQTYICNVNHKPSNTKVDKKVEPKSCDKTHTCPPCPAPEAAGAPSVFLFPPKPKDTLMISRTPEVTCVVVDVSHEDPEVKFNWYVDGVEVHNAKTKPREEQYNSTYRVVSVLTVLHQDWLNGKEYKCKVSNKALPAPIEKTISKAKGQPREPQVCTLPPSREEMTKNQVSLWCLVKGFYPSDIAVEWESNGQPENNYKTTPPVLDSDGSFFLYSKLTVDKSRWQQGNVFSCSVMHEALHNHYTQKSLSLSPGK
light: B18 light
